Reference: US20230002480A1

Tests used:
Assay in all cases: cell-based or functional assay
[1] = biological target: HIV-1 Env of pseudovirus 235-47 (clade CRF02_AG) (HIV-1)
[2] = biological target: HIV-1 Env of pseudovirus BJOX025000.01.1 (clade CRF01_AE (T/F)) (HIV-1)
[3] = biological target: HIV-1 Env of pseudovirus C4118.c09 (clade CRF01_AE) (HIV-1)
[4] = biological target: HIV-1 Env of pseudovirus R1166.c01 (clade CRF01_AE) (HIV-1)
[5] = biological target: HIV-1 Env of pseudovirus R2184.c04 (clade CRF01_AE) (HIV-1)
[6] = biological target: HIV-1 Env of pseudovirus T255-34 (clade CRF02_AG) (HIV-1)
[7] = biological target: HIV-1 Env of pseudovirus T278-50 (clade CRF02_AG) (HIV-1)
[8] = biological target: HIV-1 Env of pseudovirus 1006_11_C3_1601 (clade B (T/F)) (HIV-1)
[9] = biological target: HIV-1 Env of pseudovirus 1054_07_TC4_1499 (clade B (T/F)) (HIV-1)
[10] = biological target: HIV-1 Env of pseudovirus 246F C1G (clade C (T/F)) (HIV-1)
[11] = biological target: HIV-1 Env of pseudovirus 6244_13_B5_4576 (clade B (T/F)) (HIV-1)
[12] = biological target: HIV-1 Env of pseudovirus BF1266.431a (clade C (T/F)) (HIV-1)
[13] = biological target: HIV-1 Env of pseudovirus CAAN5342.A2 (clade B) (HIV-1)
[14] = biological target: HIV-1 Env of pseudovirus CNE21 (clade BC) (HIV-1)
[15] = biological target: HIV-1 Env of pseudovirus CNE53 (clade BC) (HIV-1)
[16] = biological target: HIV-1 Env of pseudovirus CNE58 (clade BC) (HIV-1)
[17] = biological target: HIV-1 Env of pseudovirus Ce703010054_2A2 (clade C (T/F)) (HIV-1)
[18] = biological target: HIV-1 Env of pseudovirus Du422.1 (clade C) (HIV-1)
[19] = biological target: HIV-1 Env of pseudovirus HIV-001428-2.42 (clade C) (HIV-1)
[20] = biological target: HIV-1 Env of pseudovirus MS208.A1 (clade A) (HIV-1)
[21] = biological target: HIV-1 Env of pseudovirus ZM135M.PL10a (clade C) (HIV-1)
[22] = biological target: HIV-1 Env of pseudovirus ZM214M.PL15 (clade C) (HIV-1)
[23] = biological target: HIV-1 Env of pseudovirus ZM233M.PB6 (clade C) (HIV-1)
[24] = biological target: HIV-1 Env of pseudovirus ZM247v1(Rev-) (clade C (T/F)) (HIV-1)
[25] = biological target: HIV-1 Env of pseudovirus ZM53M.PB12 (clade C) (HIV-1)
[26] = biological target: HIV-1 Env pseudovirus 235-47 (HIV-1)
[27] = biological target: HIV-1 Env pseudovirus 3103.v3.c10 (HIV-1)
[28] = biological target: HIV-1 Env pseudovirus A07412M1.vrc12 (HIV-1)
[29] = biological target: HIV-1 Env pseudovirus BJOX009000.02.4 (HIV-1)
[30] = biological target: HIV-1 Env pseudovirus BJOX028000.10.3 (HIV-1)
[31] = biological target: HIV-1 Env pseudovirus C2101.c01 (HIV-1)
[32] = biological target: HIV-1 Env pseudovirus CNE8 (HIV-1)

10-1074 (antibody)
IC50, titer in TZM.bl cells [1]: 0.05 µg/mL | IC80, titer in TZM.bl cells [1]: 0.163 µg/mL | IC50, titer in TZM.bl cells [2]: > 50 µg/mL | IC80, titer in TZM.bl cells [2]: > 50 µg/mL | IC50, titer in TZM.bl cells [3]: > 50 µg/mL | IC80, titer in TZM.bl cells [3]: > 50 µg/mL | IC50, titer in TZM.bl cells [4]: > 50 µg/mL | IC80, titer in TZM.bl cells [4]: > 50 µg/mL | IC50, titer in TZM.bl cells [5]: > 50 µg/mL | IC80, titer in TZM.bl cells [5]: > 50 µg/mL | IC50, titer in TZM.bl cells [6]: > 50 µg/mL | IC80, titer in TZM.bl cells [6]: > 50 µg/mL | IC50, titer in TZM.bl cells [7]: 2.15 µg/mL | IC80, titer in TZM.bl cells [7]: 18.3 µg/mL

10E8 (antibody)
IC50, titer in TZM.bl cells [1]: 0.384 µg/mL | IC80, titer in TZM.bl cells [1]: 2.07 µg/mL | IC50, titer in TZM.bl cells [2]: 0.107 µg/mL | IC80, titer in TZM.bl cells [2]: 6.33 µg/mL | IC50, titer in TZM.bl cells [3]: 1.62 µg/mL | IC80, titer in TZM.bl cells [3]: 9.06 µg/mL | IC50, titer in TZM.bl cells [4]: 0.274 µg/mL | IC80, titer in TZM.bl cells [4]: 2.61 µg/mL | IC50, titer in TZM.bl cells [5]: 0.272 µg/mL | IC80, titer in TZM.bl cells [5]: 2.46 µg/mL | IC50, titer in TZM.bl cells [6]: 0.778 µg/mL | IC80, titer in TZM.bl cells [6]: 4.21 µg/mL | IC50, titer in TZM.bl cells [7]: 0.949 µg/mL | IC80, titer in TZM.bl cells [7]: 7.46 µg/mL

N49P7.2 (antibody)
IC50 [8]: 0.085 µg/mL | IC80 [8]: 0.237 µg/mL | MPI [8]: 100 | IC50 [9]: 2.04 µg/mL | IC80 [9]: 10.7 µg/mL | MPI [9]: 99 | IC50 [10]: 0.049 µg/mL | IC80 [10]: 0.192 µg/mL | MPI [10]: 100 | IC50 [11]: 0.331 µg/mL | IC80 [11]: 1.04 µg/mL | MPI [11]: 100 | IC50 [12]: 0.029 µg/mL | IC80 [12]: 0.159 µg/mL | MPI [12]: 100 | IC50 [13]: 0.809 µg/mL | IC80 [13]: 2.81 µg/mL | MPI [13]: 100 | IC50 [14]: 48.3 µg/mL | IC80 [14]: > 50 µg/mL | MPI [14]: 51 | IC50 [15]: 0.1 µg/mL | IC80 [15]: 0.277 µg/mL | MPI [15]: 100 | IC50 [16]: 0.045 µg/mL | IC80 [16]: 0.129 µg/mL | MPI [16]: 100 | IC50 [17]: 0.124 µg/mL | IC80 [17]: 0.576 µg/mL | MPI [17]: 100 | IC50 [18]: > 50 µg/mL | IC80 [18]: > 50 µg/mL | MPI [18]: 22 | IC50 [19]: 0.01 µg/mL | IC80 [19]: 0.036 µg/mL | MPI [19]: 100 | IC50 [20]: 0.186 µg/mL | IC80 [20]: 0.966 µg/mL | MPI [20]: 100 | IC50 [21]: 0.596 µg/mL | IC80 [21]: 2.8 µg/mL | MPI [21]: 99 | IC50 [22]: 0.559 µg/mL | IC80 [22]: 4.53 µg/mL | MPI [22]: 100 | IC50 [23]: 0.475 µg/mL | IC80 [23]: 2.14 µg/mL | MPI [23]: 99 | IC50 [24]: 0.177 µg/mL | IC80 [24]: 2.5 µg/mL | MPI [24]: 96 | IC50 [25]: 0.477 µg/mL | IC80 [25]: 1.73 µg/mL | MPI [25]: 100

N49P9 (antibody)
IC50 [26]: 0.072 µg/mL | IC80 [26]: 0.271 µg/mL | MPI [26]: 98 | IC50 [27]: 17.6 µg/mL | IC80 [27]: > 50 µg/mL | MPI [27]: 55 | IC50 [28]: 0.142 µg/mL | IC80 [28]: 0.636 µg/mL | MPI [28]: 100 | IC50 [29]: 0.727 µg/mL | IC80 [29]: 3.29 µg/mL | MPI [29]: 100 | IC50 [30]: 0.031 µg/mL | IC80 [30]: 0.134 µg/mL | MPI [30]: 100 | IC50 [31]: 0.051 µg/mL | IC80 [31]: 0.209 µg/mL | MPI [31]: 100 | IC50 [32]: 0.056 µg/mL | IC80 [32]: 0.26 µg/mL | MPI [32]: 100
